Test results: PMC2134296

What follows are substances tested against adenomatous polyposis coli (APC) protein (endogenous, MDCK cells) (dog (endogenous in MDCK)) (assay: co-IP).

| Substance | fold coimmunoprecipitated with APC protein relative to endogenous β-catenin [fold] |
| --- | --- |
| ΔN90 β-catenin (KT3-tagged, NH2-terminal 90 amino acids deleted) (from UniProt Q02248 91-781) (domain or fragment) | 3 |
| ΔN131 β-catenin (KT3-tagged, NH2-terminal 131 amino acids deleted) (from UniProt Q02248 132-781) (domain or fragment) | 3 |
| ΔN151 β-catenin (KT3-tagged, NH2-terminal 151 amino acids deleted) (from UniProt Q02248 152-781) (domain or fragment) | 3 |
